The values that follow come from PMC3584034.

Series [1] addresses T1, EpCAM (human (breast and colon cancer cell lines)) (UniProt P16422).
T1 sequence: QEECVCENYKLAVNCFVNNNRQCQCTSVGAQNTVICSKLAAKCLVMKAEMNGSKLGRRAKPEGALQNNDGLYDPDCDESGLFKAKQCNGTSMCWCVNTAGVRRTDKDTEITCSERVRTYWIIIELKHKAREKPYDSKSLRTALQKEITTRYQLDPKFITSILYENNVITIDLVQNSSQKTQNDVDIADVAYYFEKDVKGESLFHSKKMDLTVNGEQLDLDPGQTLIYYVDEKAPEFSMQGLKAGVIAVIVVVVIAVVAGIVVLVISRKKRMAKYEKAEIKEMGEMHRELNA
Briefly: cell binding (cited). The note with it: 2'-fluoropyrimidine (Methods: 2'-fluoropyrimidine or 2'-O-methyl-pyrimidine bases); 3' inverted dT; FFPE staining: PBS, 5 mM MgCl2, 0.1 mg/mL tRNA, 1 mg/mL BSA, 10% dextran sulphate, 500 ug/mL heparin, 100 nM aptamer, 15 min, 37 C; flow cytometry: 100 nM …; cited from earlier work.

The target of series [2] is T1, EpCAM (human (breast and colon cancer cell lines)). Briefly: cell binding (method not given). The note with it: 2'-fluoropyrimidine (Methods: 2'-fluoropyrimidine or 2'-O-methyl-pyrimidine bases); 3' inverted dT; FFPE staining: PBS, 5 mM MgCl2, 0.1 mg/mL tRNA, 1 mg/mL BSA, 10% dextran sulphate, 500 ug/mL heparin, 100 nM aptamer, 15 min, 37 C; flow cytometry: 100 nM ….

With GCGACUGGUUACCCGGUCG [DT3], the Kd in series [1] is 158 nM. With ACGUAUCCCUUUUCGCGUA [Ep23], in series [2], the Kd worked out at 37 nM.
